This passage reports EC50 [nM], 0% HSA and EC50 [nM], 0.1% HSA results from US12679878B2, “CRF2 receptor agonists and their use in therapy” (SANOFI, priority 2020, dated 2026).

The test has as its target human corticotropin-releasing factor 2α (CRF2 α receptor) (human), Q13324. As to the kind of experiment: cell-based or functional assay.

Starred links: 1 amine or outer side, 2 acyl side, 3 side chain; linkers in the order of their positions; H or OH if unused. Non-standard residues stand in square brackets, D forms with d. Groups on a side chain read outwards from the residue. No end group written: not given here. *: point of attachment. C20 diacid = O=C(O)CCCCCCCCCCCCCCCCCCC(=O)*; C18 diacid = O=C(O)CCCCCCCCCCCCCCCCC(=O)*; γGlu = O=C(O)[C@H](CCC(=O)[*:2])N[*:1]; Palmitoyl = CCCCCCCCCCCCCCCC(=O)*; AEEA = NCCOCCOCC(=O)O; Aib = CC(C)(N)C(=O)O

human corticotropin-releasing factor 2α (CRF2 α receptor) (human), Q13324, sequence (Q13324 20-411): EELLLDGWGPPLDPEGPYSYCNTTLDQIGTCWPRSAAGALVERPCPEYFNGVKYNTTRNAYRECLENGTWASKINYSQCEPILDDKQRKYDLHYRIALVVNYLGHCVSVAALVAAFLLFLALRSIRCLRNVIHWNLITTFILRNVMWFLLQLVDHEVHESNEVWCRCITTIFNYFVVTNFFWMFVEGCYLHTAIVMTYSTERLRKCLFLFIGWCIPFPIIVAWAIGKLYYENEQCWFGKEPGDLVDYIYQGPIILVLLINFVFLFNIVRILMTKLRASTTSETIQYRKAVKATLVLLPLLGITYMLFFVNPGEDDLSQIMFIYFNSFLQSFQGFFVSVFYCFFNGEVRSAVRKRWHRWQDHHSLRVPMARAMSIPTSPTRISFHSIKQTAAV

B1: SEQ ID NO: 173 (peptide)
peptide: IVLSLD[dV]PIKLK([AEEA-AEEA-γGlu-C20 diacid])QILLKQERQK[Aib]QREQAEKNKQILAQV-NH2
modifications: N-terminus assumed
SMILES: CC[C@H](C)[C@H](N)C(=O)N[C@H](C(=O)N[C@@H](CC(C)C)C(=O)N[C@@H](CO)C(=O)N[C@@H](CC(C)C)C(=O)N[C@@H](CC(=O)O)C(=O)N[C@@H](C(=O)N1CCC[C@H]1C(=O)N[C@H](C(=O)N[C@@H](CCCCN)C(=O)N[C@@H](CC(C)C)C(=O)N[C@@H](CCCCNC(=O)COCCOCCNC(=O)COCCOCCNC(=O)CC[C@H](NC(=O)CCCCCCCCCCCCCCCCCCC(=O)O)C(=O)O)C(=O)N[C@@H](CCC(N)=O)C(=O)N[C@H](C(=O)N[C@@H](CC(C)C)C(=O)N[C@@H](CC(C)C)C(=O)N[C@@H](CCCCN)C(=O)N[C@@H](CCC(N)=O)C(=O)N[C@@H](CCC(=O)O)C(=O)N[C@@H](CCCNC(=N)N)C(=O)N[C@@H](CCC(N)=O)C(=O)N[C@@H](CCCCN)C(=O)NC(C)(C)C(=O)N[C@@H](CCC(N)=O)C(=O)N[C@@H](CCCNC(=N)N)C(=O)N[C@@H](CCC(=O)O)C(=O)N[C@@H](CCC(N)=O)C(=O)N[C@@H](C)C(=O)N[C@@H](CCC(=O)O)C(=O)N[C@@H](CCCCN)C(=O)N[C@@H](CC(N)=O)C(=O)N[C@@H](CCCCN)C(=O)N[C@@H](CCC(N)=O)C(=O)N[C@H](C(=O)N[C@@H](CC(C)C)C(=O)N[C@@H](C)C(=O)N[C@@H](CCC(N)=O)C(=O)N[C@H](C(N)=O)C(C)C)[C@@H](C)CC)[C@@H](C)CC)[C@@H](C)CC)C(C)C)C(C)C
As to B1, the EC50 [nM], 0% HSA was found to be 0.03 nM and the EC50 [nM], 0.1% HSA came out at 3.49 nM.

B2: SEQ ID NO: 21 (peptide)
peptide: IVLSLD[dV]PTKLK([γGlu-Palmitoyl])QKLLKQERQRKE[Aib]EQAEKNKRILERV-NH2
modifications: N-terminus assumed
SMILES: CCCCCCCCCCCCCCCC(=O)N[C@@H](CCC(=O)NCCCC[C@H](NC(=O)[C@H](CC(C)C)NC(=O)[C@H](CCCCN)NC(=O)[C@@H](NC(=O)[C@@H]1CCCN1C(=O)[C@H](NC(=O)[C@H](CC(=O)O)NC(=O)[C@H](CC(C)C)NC(=O)[C@H](CO)NC(=O)[C@H](CC(C)C)NC(=O)[C@@H](NC(=O)[C@@H](N)[C@@H](C)CC)C(C)C)C(C)C)[C@@H](C)O)C(=O)N[C@@H](CCC(N)=O)C(=O)N[C@@H](CCCCN)C(=O)N[C@@H](CC(C)C)C(=O)N[C@@H](CC(C)C)C(=O)N[C@@H](CCCCN)C(=O)N[C@@H](CCC(N)=O)C(=O)N[C@@H](CCC(=O)O)C(=O)N[C@@H](CCCNC(=N)N)C(=O)N[C@@H](CCC(N)=O)C(=O)N[C@@H](CCCNC(=N)N)C(=O)N[C@@H](CCCCN)C(=O)N[C@@H](CCC(=O)O)C(=O)NC(C)(C)C(=O)N[C@@H](CCC(=O)O)C(=O)N[C@@H](CCC(N)=O)C(=O)N[C@@H](C)C(=O)N[C@@H](CCC(=O)O)C(=O)N[C@@H](CCCCN)C(=O)N[C@@H](CC(N)=O)C(=O)N[C@@H](CCCCN)C(=O)N[C@@H](CCCNC(=N)N)C(=O)N[C@H](C(=O)N[C@@H](CC(C)C)C(=O)N[C@@H](CCC(=O)O)C(=O)N[C@@H](CCCNC(=N)N)C(=O)N[C@H](C(N)=O)C(C)C)[C@@H](C)CC)C(=O)O
For B2, the EC50 [nM], 0% HSA was 0.02 nM.

B3: SEQ ID NO: 175 (peptide)
peptide: IVLSLD[dV]PIKLK([AEEA-AEEA-γGlu-C20 diacid])QILLKQARQK[Aib]QRAQAEKNKRILERV-NH2
modifications: N-terminus assumed
SMILES: CC[C@H](C)[C@H](N)C(=O)N[C@H](C(=O)N[C@@H](CC(C)C)C(=O)N[C@@H](CO)C(=O)N[C@@H](CC(C)C)C(=O)N[C@@H](CC(=O)O)C(=O)N[C@@H](C(=O)N1CCC[C@H]1C(=O)N[C@H](C(=O)N[C@@H](CCCCN)C(=O)N[C@@H](CC(C)C)C(=O)N[C@@H](CCCCNC(=O)COCCOCCNC(=O)COCCOCCNC(=O)CC[C@H](NC(=O)CCCCCCCCCCCCCCCCCCC(=O)O)C(=O)O)C(=O)N[C@@H](CCC(N)=O)C(=O)N[C@H](C(=O)N[C@@H](CC(C)C)C(=O)N[C@@H](CC(C)C)C(=O)N[C@@H](CCCCN)C(=O)N[C@@H](CCC(N)=O)C(=O)N[C@@H](C)C(=O)N[C@@H](CCCNC(=N)N)C(=O)N[C@@H](CCC(N)=O)C(=O)N[C@@H](CCCCN)C(=O)NC(C)(C)C(=O)N[C@@H](CCC(N)=O)C(=O)N[C@@H](CCCNC(=N)N)C(=O)N[C@@H](C)C(=O)N[C@@H](CCC(N)=O)C(=O)N[C@@H](C)C(=O)N[C@@H](CCC(=O)O)C(=O)N[C@@H](CCCCN)C(=O)N[C@@H](CC(N)=O)C(=O)N[C@@H](CCCCN)C(=O)N[C@@H](CCCNC(=N)N)C(=O)N[C@H](C(=O)N[C@@H](CC(C)C)C(=O)N[C@@H](CCC(=O)O)C(=O)N[C@@H](CCCNC(=N)N)C(=O)N[C@H](C(N)=O)C(C)C)[C@@H](C)CC)[C@@H](C)CC)[C@@H](C)CC)C(C)C)C(C)C
B3 returned an EC50 [nM], 0% HSA of 0.06 nM and an EC50 [nM], 0.1% HSA of 3.64 nM.

B4: SEQ ID NO: 174 (peptide)
peptide: IVLSLD[dV]PIKLK([AEEA-AEEA-γGlu-γGlu-C18 diacid])QILLKQARQK[Aib]QRAQAEKNKRILERV-NH2
modifications: N-terminus assumed
SMILES: CC[C@H](C)[C@H](N)C(=O)N[C@H](C(=O)N[C@@H](CC(C)C)C(=O)N[C@@H](CO)C(=O)N[C@@H](CC(C)C)C(=O)N[C@@H](CC(=O)O)C(=O)N[C@@H](C(=O)N1CCC[C@H]1C(=O)N[C@H](C(=O)N[C@@H](CCCCN)C(=O)N[C@@H](CC(C)C)C(=O)N[C@@H](CCCCNC(=O)COCCOCCNC(=O)COCCOCCNC(=O)CC[C@H](NC(=O)CC[C@H](NC(=O)CCCCCCCCCCCCCCCCC(=O)O)C(=O)O)C(=O)O)C(=O)N[C@@H](CCC(N)=O)C(=O)N[C@H](C(=O)N[C@@H](CC(C)C)C(=O)N[C@@H](CC(C)C)C(=O)N[C@@H](CCCCN)C(=O)N[C@@H](CCC(N)=O)C(=O)N[C@@H](C)C(=O)N[C@@H](CCCNC(=N)N)C(=O)N[C@@H](CCC(N)=O)C(=O)N[C@@H](CCCCN)C(=O)NC(C)(C)C(=O)N[C@@H](CCC(N)=O)C(=O)N[C@@H](CCCNC(=N)N)C(=O)N[C@@H](C)C(=O)N[C@@H](CCC(N)=O)C(=O)N[C@@H](C)C(=O)N[C@@H](CCC(=O)O)C(=O)N[C@@H](CCCCN)C(=O)N[C@@H](CC(N)=O)C(=O)N[C@@H](CCCCN)C(=O)N[C@@H](CCCNC(=N)N)C(=O)N[C@H](C(=O)N[C@@H](CC(C)C)C(=O)N[C@@H](CCC(=O)O)C(=O)N[C@@H](CCCNC(=N)N)C(=O)N[C@H](C(N)=O)C(C)C)[C@@H](C)CC)[C@@H](C)CC)[C@@H](C)CC)C(C)C)C(C)C
The molecule B4 yielded an EC50 [nM], 0% HSA of 0.07 nM and an EC50 [nM], 0.1% HSA of 0.88 nM.

B5: SEQ ID NO: 177 (peptide)
peptide: IVLSLD[dV]PIKLK([AEEA-AEEA-γGlu-γGlu-C20 diacid])QILLKQERQKKQRQQAEKNKQILAQV-NH2
modifications: N-terminus assumed
SMILES: CC[C@H](C)[C@H](N)C(=O)N[C@H](C(=O)N[C@@H](CC(C)C)C(=O)N[C@@H](CO)C(=O)N[C@@H](CC(C)C)C(=O)N[C@@H](CC(=O)O)C(=O)N[C@@H](C(=O)N1CCC[C@H]1C(=O)N[C@H](C(=O)N[C@@H](CCCCN)C(=O)N[C@@H](CC(C)C)C(=O)N[C@@H](CCCCNC(=O)COCCOCCNC(=O)COCCOCCNC(=O)CC[C@H](NC(=O)CC[C@H](NC(=O)CCCCCCCCCCCCCCCCCCC(=O)O)C(=O)O)C(=O)O)C(=O)N[C@@H](CCC(N)=O)C(=O)N[C@H](C(=O)N[C@@H](CC(C)C)C(=O)N[C@@H](CC(C)C)C(=O)N[C@@H](CCCCN)C(=O)N[C@@H](CCC(N)=O)C(=O)N[C@@H](CCC(=O)O)C(=O)N[C@@H](CCCNC(=N)N)C(=O)N[C@@H](CCC(N)=O)C(=O)N[C@@H](CCCCN)C(=O)N[C@@H](CCCCN)C(=O)N[C@@H](CCC(N)=O)C(=O)N[C@@H](CCCNC(=N)N)C(=O)N[C@@H](CCC(N)=O)C(=O)N[C@@H](CCC(N)=O)C(=O)N[C@@H](C)C(=O)N[C@@H](CCC(=O)O)C(=O)N[C@@H](CCCCN)C(=O)N[C@@H](CC(N)=O)C(=O)N[C@@H](CCCCN)C(=O)N[C@@H](CCC(N)=O)C(=O)N[C@H](C(=O)N[C@@H](CC(C)C)C(=O)N[C@@H](C)C(=O)N[C@@H](CCC(N)=O)C(=O)N[C@H](C(N)=O)C(C)C)[C@@H](C)CC)[C@@H](C)CC)[C@@H](C)CC)C(C)C)C(C)C
On to B5, for which the EC50 [nM], 0% HSA was found to be 0.07 nM and the EC50 [nM], 0.1% HSA was 5.19 nM.

B6: SEQ ID NO: 176 (peptide)
peptide: IVLSLD[dV]PIKLK([AEEA-AEEA-γGlu-γGlu-C18 diacid])QILLKQERQKKQRQQAEKNKQILAQV-NH2
modifications: N-terminus assumed
SMILES: CC[C@H](C)[C@H](N)C(=O)N[C@H](C(=O)N[C@@H](CC(C)C)C(=O)N[C@@H](CO)C(=O)N[C@@H](CC(C)C)C(=O)N[C@@H](CC(=O)O)C(=O)N[C@@H](C(=O)N1CCC[C@H]1C(=O)N[C@H](C(=O)N[C@@H](CCCCN)C(=O)N[C@@H](CC(C)C)C(=O)N[C@@H](CCCCNC(=O)COCCOCCNC(=O)COCCOCCNC(=O)CC[C@H](NC(=O)CC[C@H](NC(=O)CCCCCCCCCCCCCCCCC(=O)O)C(=O)O)C(=O)O)C(=O)N[C@@H](CCC(N)=O)C(=O)N[C@H](C(=O)N[C@@H](CC(C)C)C(=O)N[C@@H](CC(C)C)C(=O)N[C@@H](CCCCN)C(=O)N[C@@H](CCC(N)=O)C(=O)N[C@@H](CCC(=O)O)C(=O)N[C@@H](CCCNC(=N)N)C(=O)N[C@@H](CCC(N)=O)C(=O)N[C@@H](CCCCN)C(=O)N[C@@H](CCCCN)C(=O)N[C@@H](CCC(N)=O)C(=O)N[C@@H](CCCNC(=N)N)C(=O)N[C@@H](CCC(N)=O)C(=O)N[C@@H](CCC(N)=O)C(=O)N[C@@H](C)C(=O)N[C@@H](CCC(=O)O)C(=O)N[C@@H](CCCCN)C(=O)N[C@@H](CC(N)=O)C(=O)N[C@@H](CCCCN)C(=O)N[C@@H](CCC(N)=O)C(=O)N[C@H](C(=O)N[C@@H](CC(C)C)C(=O)N[C@@H](C)C(=O)N[C@@H](CCC(N)=O)C(=O)N[C@H](C(N)=O)C(C)C)[C@@H](C)CC)[C@@H](C)CC)[C@@H](C)CC)C(C)C)C(C)C
On to B6, for which the EC50 [nM], 0% HSA amounted to 0.11 nM and the EC50 [nM], 0.1% HSA turned out to be 3.05 nM.
